Results reported in the supplement of paper PMC10201428.
± gives the standard deviation of the averaged measurements.

B1: library; a variant is named by its letters at N, in order (parent)
chain: ACATTTGTTGATACAACCATAAAATGATAATTACACCCATAAATTGATAATTATCACACCCANNNNNNNNNNNNNNCTCTGATCATAGTCAGACCAACATTGCTACGACCCGTATTCGCACCGACAC

Assays:
[1] = variants of: B1; assay: relative integration efficiency (T-RL orientation) vs wild-type transposon end (log2 (normalized fold change)); transposon end mutated: right end (5 bp flank + 75 bp right end); higher = more efficient transposition; conditions: with VchCAST RNA-guided transposition machinery (E. coli BL21(DE3) host, lacZ target)
Summary of the method: (§1)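 Relative integration efficiency is a fold change of output over input barcode abundance, normalised to reference barcodes and log-transformed. Input plasmids and genomic integration junctions were PCR-amplified and Illumina-sequenced from E. coli BL21(DE3) co-transformed with a T7-driven effector plasmid and pUC57 donor pools of 1549 left-end or 1849 right-end transposon variants. Plating was done with 0.1 mM IPTG at 37°C for 18 h, with two biological output replicates and four reference barcodes.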

[2] = variants of: B1; assay: relative integration efficiency (T-LR orientation) vs wild-type transposon end (log2 (normalized fold change)); transposon end mutated: right end (5 bp flank + 75 bp right end); higher = more efficient transposition; conditions: with VchCAST RNA-guided transposition machinery (E. coli BL21(DE3) host, lacZ target)
Summary of the method: as §1

Row | Variant | relative integration efficiency (log2) [1] | relative integration efficiency (log2) [2]
1 | TAAATTGATATTGC T20G | -1.34 ± 0.03 | -1.12 ± 0.28
2 | TAAATTGATATTGC T25A | -0.524 ± 0.069 | -0.8 ± 0.34
3 | TAAATTGATATTGC T25C | -0.146 ± 0.0084 | -0.488 ± 0.0056
4 | TAAATTGATATTGC T25G | -0.25 ± 0.041 | -0.0581 ± 0.34
5 | TAAATTGATATTGC T28A | -0.215 ± 0.21 | 0.152 ± 0.12
6 | TAAATTGATATTGC T28C | -0.278 ± 0.096 | -0.203 ± 0.2
7 | TAAATTGATATTGC T28G | -0.476 ± 0.036 | 0.189 ± 0.11
8 | TAAATTGATATTGC T31A | -0.436 ± 0.1 | 0.0674 ± 0.1
9 | TAAATTGATATTGC T31C | -0.0667 ± 0.0077 | 0.344 ± 0.35
10 | TAAATTGATATTGC T31G | -0.564 ± 0.13 | 0.2 ± 0.23
11 | TAAATTGATATTGC T32A | 0.933 ± 0.11 | 0.96 ± 0.14
12 | TAAATTGATATTGC T32C | -0.438 ± 0.11 | -0.169 ± 0.21
13 | TAAATTGATATTGC T32G | -1.26 ± 0.063 | 0.729 ± 0.26
14 | TAAATTGATATTGC T40A | -0.0544 ± 0.14 | -0.355 ± 0.17
15 | TAAATTGATATTGC T40C | -0.609 ± 0.017 | -0.859 ± 0.091
16 | TAAATTGATATTGC T40G | -0.896 ± 0.09 | -1.24 ± 0.71
17 | TAAATTGATATTGC T44A | 0.0685 ± 0.021 | -0.0417 ± 0.00085
18 | TAAATTGATATTGC T44C | -0.0775 ± 0.082 | -0.274 ± 0.09
19 | TAAATTGATATTGC T44G | -0.00517 ± 0.11 | -0.385 ± 0.26
20 | TAAATTGATATTGC T45A | -0.307 ± 0.056 | -0.351 ± 0.41

Row | Variant | relative integration efficiency (log2) [1] | relative integration efficiency (log2) [2]
21 | TAAATTGATATTGC T45C | -0.0459 ± 0.091 | -0.285 ± 0.21
22 | TAAATTGATATTGC T45G | -0.479 ± 0.082 | -0.522 ± 0.1
23 | TAAATTGATATTGC T48A | 0.196 ± 0.2 | 0.629 ± 0.21
24 | TAAATTGATATTGC T48C | -0.4021 ± 0.003 | -0.401 ± 0.25
25 | TAAATTGATATTGC T48G | -0.12 ± 0.078 | -0.379 ± 0.13
26 | TAAATTGATATTGC T51A | -0.455 ± 0.07 | -0.206 ± 0.1
27 | TAAATTGATATTGC T51C | 0.0252 ± 0.18 | 0.0609 ± 0.14
28 | TAAATTGATATTGC T51G | -0.507 ± 0.097 | -0.118 ± 0.2
29 | TAAATTGATATTGC T52A | -0.149 ± 0.095 | 0.276 ± 0.4
30 | TAAATTGATATTGC T52C | -0.34 ± 0.15 | -0.286 ± 0.39
31 | TAAATTGATATTGC T52G | -0.506 ± 0.15 | -0.16 ± 0.37
32 | TAAATTGATATTGC T54A | -0.338 ± 0.15 | 0.141 ± 0.18
33 | TAAATTGATATTGC T54C | -0.0952 ± 0.0069 | -0.015 ± 0.36
34 | TAAATTGATATTGC T54G | 0.0616 ± 0.064 | 0.247 ± 0.082
35 | TAAATTGATATTGC T78A | -0.396 ± 0.15 | -0.018 ± 0.18
36 | TAAATTGATATTGC T78C | -0.00404 ± 0.024 | -0.0349 ± 0.43
37 | TAAATTGATATTGC T78G | 0.0385 ± 0.031 | 0.078 ± 0.44
38 | TAAATTGATATTGC T80A | 0.0921 ± 0.03 | 0.072 ± 0.48
39 | TAAATTGATATTGC T80C | -0.0687 ± 0.062 | -0.0985 ± 0.41
40 | TAAATTGATATTGC T80G | 0.183 ± 0.047 | 0.0082 ± 0.15

Row | Variant | relative integration efficiency (log2) [1] | relative integration efficiency (log2) [2]
41 | TAAATTGATATTGG | 0.00187 ± 0.0011 | -0.155 ± 0.042
42 | TAAATTGATATTGG C77G | -0.0309 ± 0.041 | -0.0151 ± 0.56
43 | TAAATTGATATTGT | 0.127 ± 0.093 | 0.155 ± 0.13
44 | TAAATTGATATTTA | 0.1 ± 0.034 | 0.122 ± 0.099
45 | TAAATTGATATTTC | -0.0163 ± 0.045 | -0.13 ± 0.15
46 | TAAATTGATCGGTC | -0.277 ± 0.017 | 1.42 ± 0.094
47 | TAAATTGATCGTGC | -0.217 ± 0.047 | 0.973 ± 0.038
48 | TAAATTGATCTTGC | 0.011 ± 0.051 | 0.816 ± 0.13
49 | TAAATTGATGTTGC | -0.0405 ± 0.033 | 0.475 ± 0.053
50 | TAAATTGATTAACC | -0.157 ± 0.13 | 1.35 ± 0.077
51 | TAAATTGATTATGC | -0.138 ± 0.008 | 0.414 ± 0.43
52 | TAAATTGATTTTGC | -0.0591 ± 0.014 | 0.338 ± 0.22
53 | TAAATTGCGATTGC | -0.463 ± 0.06 | 1.51 ± 0.028
54 | TAAATTGCGCGTGC | -0.618 ± 0.12 | 1.7 ± 0.1
55 | TAAATTGCTATTGC | -0.207 ± 0.014 | 0.841 ± 0.12
56 | TAAATTGGTATTGC | 0.0075 ± 0.082 | 0.963 ± 0.065
57 | TAAATTGTAATTGC | -0.121 ± 0.11 | 1.88 ± 0.1
58 | TAAATTGTATATGC | -0.247 ± 0.1 | 0.948 ± 0.27
